In article PMC9933121 (Proceedings of the National Academy of Sciences of the …, 2023):

Columns and labels:
[1] = target: T1, DENV2 strain 16681 premembrane (prM) protein, wild type (Dengue virus 2 strain 16681 (NC_001474)); test: cell-based or functional assay
T1 chain: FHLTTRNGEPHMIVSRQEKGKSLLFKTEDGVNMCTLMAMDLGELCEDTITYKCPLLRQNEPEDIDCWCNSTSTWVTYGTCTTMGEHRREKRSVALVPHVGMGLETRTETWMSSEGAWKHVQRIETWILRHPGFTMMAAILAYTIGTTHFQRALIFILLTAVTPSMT

[2] = target: DENV2 strain 16681 premembrane (prM) protein, wild type (dengue virus 2 strain 16681)
[3] = target: trimeric prM–E spike of immature DENV2 strain 16681 virions (dengue virus 2 strain 16681); test: cryo-EM structure

B1: prM13, murine prM-reactive monoclonal antibody (IgG2c) (antibody, V domains shown)
VH: AAQLQESGPELVKPGASVKISCKASGYTFTDYFINWVRQSHGKSLEWIGDFYPNNRGPTYNQKFEGKATLTVDKSSSTAYMELRSLTSDDSAVYYCARGLWDAWLSYWGQGTLVTVSA
VL: AIVATQSPAIMSASPGEKVTISCSASSSVSYMYWYQQKPGSSPKPWIYRTSNLASGVPTRFSGSGSGTSYSFTISSMEAEDAATYYCQQYHNYPRTFGGGTKAKSA
[1]
  neutralisation of DENV2 RVPs, EC50 of the sensitive fraction of virions: ~5 ng/mL

B2: prM12, murine prM-reactive monoclonal antibody (IgG2c) (antibody, V domains shown)
VH: EVQLQESGPELVKPGTSVKMSCKASGYTFTDYNIHWVKQSHGKSLEWIGYINPNNGGNKYTQKFEGRATLTVGKSSSTAYMELRSLTSEDSAVYYCARSPMYFYYDGSYYFDYWGQGTSLSVSS
VL: DIVLTQSPASLAVSLGQRATISYRASKSVSTSGYSYMHWNQQKPGQPPRLLIYLVSNLESGVPARFSGSGSGTDFTLNIHPVEEEDAATYYCQHIRELTFGAAPSAAAR
[2]
  neutralisation of DENV2 RVPs, EC50 of the sensitive fraction of virions: 5 ng/mL

B3: prM12 Fab fragment (Fab, V domains shown)
VH: EVQLQESGPELVKPGTSVKMSCKASGYTFTDYNIHWVKQSHGKSLEWIGYINPNNGGNKYTQKFEGRATLTVGKSSSTAYMELRSLTSEDSAVYYCARSPMYFYYDGSYYFDYWGQGTSLSVSS
VL: DIVLTQSPASLAVSLGQRATISYRASKSVSTSGYSYMHWNQQKPGQPPRLLIYLVSNLESGVPARFSGSGSGTDFTLNIHPVEEEDAATYYCQHIRELTFGAAPSAAAR
[3]
  occupancy: 100%
